Laboratory results taken from US20250076311A1 (Chugai, published 2025).

T1: cynomolgus monkey FcγRIIa3 extracellular domain with C-terminal His-tag (cynomolgus monkey)
T1 construct: also called cyno FcgRIIa3; cynoFcγRIIa3; not shown: His-tag added to the C-terminus
T1 chain: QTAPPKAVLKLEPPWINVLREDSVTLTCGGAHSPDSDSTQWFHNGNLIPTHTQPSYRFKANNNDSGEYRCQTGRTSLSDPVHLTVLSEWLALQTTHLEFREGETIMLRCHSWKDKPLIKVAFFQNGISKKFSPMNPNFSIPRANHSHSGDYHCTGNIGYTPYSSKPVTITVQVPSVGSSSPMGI

T2: cynomolgus monkey FcγRIIb extracellular domain, His-tagged (cynomolgus monkey)
T2 construct: also called cyno FcgRIIb
T2 chain: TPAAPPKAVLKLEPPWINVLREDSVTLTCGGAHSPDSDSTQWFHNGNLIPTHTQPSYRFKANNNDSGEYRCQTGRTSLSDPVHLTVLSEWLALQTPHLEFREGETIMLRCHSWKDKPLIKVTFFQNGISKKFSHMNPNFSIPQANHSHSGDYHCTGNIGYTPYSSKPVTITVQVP

T3: cynomolgus monkey FcγRIIa3 extracellular domain, His-tagged (cynomolgus monkey)
T3 construct: also called cyno FcgRIIa3
T3 chain: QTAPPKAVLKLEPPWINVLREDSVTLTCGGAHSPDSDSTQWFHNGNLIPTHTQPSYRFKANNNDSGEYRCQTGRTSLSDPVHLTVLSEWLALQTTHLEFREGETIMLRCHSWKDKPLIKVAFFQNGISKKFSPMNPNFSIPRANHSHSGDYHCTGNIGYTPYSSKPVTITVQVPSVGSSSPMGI

T4: cynomolgus monkey FcγRIIa1 extracellular domain, His-tagged (cynomolgus monkey)
T4 construct: also called cyno FcgRIIa1
T4 chain: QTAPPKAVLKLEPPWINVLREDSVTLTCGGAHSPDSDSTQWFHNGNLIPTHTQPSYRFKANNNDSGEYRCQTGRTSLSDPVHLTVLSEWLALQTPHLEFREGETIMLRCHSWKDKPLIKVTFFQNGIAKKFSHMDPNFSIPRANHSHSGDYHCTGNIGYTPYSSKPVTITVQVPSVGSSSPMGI

T5: cynomolgus monkey FcγRIIa2 extracellular domain, His-tagged (cynomolgus monkey)
T5 construct: also called cyno FcgRIIa2
T5 chain: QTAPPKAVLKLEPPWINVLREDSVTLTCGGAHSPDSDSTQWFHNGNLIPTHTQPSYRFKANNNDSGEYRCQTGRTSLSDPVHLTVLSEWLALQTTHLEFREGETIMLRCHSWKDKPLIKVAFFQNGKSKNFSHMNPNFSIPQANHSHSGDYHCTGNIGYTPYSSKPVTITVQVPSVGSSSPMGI

T6: cynomolgus monkey FcγRIIIaS extracellular domain, His-tagged (cynomolgus monkey, UniProt Q8SPW2 21-206 at identity 1.00))
T6 construct: also called cyno FcgRIIIaS
T6 chain: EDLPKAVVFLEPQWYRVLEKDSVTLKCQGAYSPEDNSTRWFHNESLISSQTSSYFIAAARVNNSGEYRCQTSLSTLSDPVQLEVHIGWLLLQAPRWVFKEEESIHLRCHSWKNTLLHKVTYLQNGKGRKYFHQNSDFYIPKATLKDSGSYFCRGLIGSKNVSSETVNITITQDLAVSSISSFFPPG

T7: human FcγRIIb extracellular domain with C-terminal His-tag (human, UniProt P31994 43-217)
T7 construct: also called human FcgRIIb; not shown: His-tag added to C-terminus
T7 sequence: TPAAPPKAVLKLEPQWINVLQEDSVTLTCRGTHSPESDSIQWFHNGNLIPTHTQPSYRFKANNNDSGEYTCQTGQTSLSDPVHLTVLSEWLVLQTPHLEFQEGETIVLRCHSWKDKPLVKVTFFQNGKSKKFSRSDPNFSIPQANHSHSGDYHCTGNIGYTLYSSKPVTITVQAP


Experiments:
[1] = molecular target: T1, cynomolgus monkey FcγRIIa3 …; assay: SPR (BIACORE), antibody captured, FcgR analyte
Protocol: (§1) The kinetic analysis of interactions between these antibodies and FcγR was carried out using BIACORE® T200 or BIACORE® 4000 (GE Healthcare). HBS-EP+ (GE Healthcare) was used as the running buffer, and the measurement temperature was set to 25° C. […] After the measurement, the antibody captured on the chip was washed off by allowing reaction with 10 mM glycine-HCl, pH1.5 and 25 mM NaOH so that the chip was regenerated and used repeatedly. The sensorgrams obtained as measurement results were analyzed by the 1:1 Langmuir binding model using the BIACORE® Evaluation Software to calculate the binding rate constant ka (L/mol/s) and dissociation rate constant kd (1/s), and the dissociation constant KD (mol/L) was calculated from these values. […] Regarding such interactions, KD values were calculated using the following 1:1 binding model described in BIACORE® T100 Software Handbook BR1006-48 Edition AE.

[2] = molecular target: T2, cynomolgus monkey FcγRIIb extracellular …; assay: SPR (Biacore), 25C, FcgR bound per antibody captured
Protocol: (§2) In the next step, cross-reactivity of these substitutions to cynoFcγRs was evaluated.
(§3) The value of the amount of FcγR binding was obtained by dividing the amount of FcγR bound by the amount of each antibody captured.

[3] = molecular target: T3, cynomolgus monkey FcγRIIa3 …; assay: as above
Protocol: as §2, §3

[4] = molecular target: T4, cynomolgus monkey FcγRIIa1 …; assay: as above
Protocol: as §2, §3

[5] = molecular target: T5, cynomolgus monkey FcγRIIa2 …; assay: as above
Protocol: as §2, §3

[6] = molecular target: T6, cynomolgus monkey FcγRIIIaS …; assay: as above
Protocol: as §2, §3

[7] = molecular target: T7, human FcγRIIb extracellular domain with …; assay: SPR Biacore, antibody captured, FcgR analyte
Protocol: as §1

[8] = molecular target: T8, cynomolgus monkey FcγRIIIaS extracellular domain with C-terminal His-tag (cynomolgus monkey, UniProt A3RFZ7 21-206 (rhesus entry)); assay: SPR Biacore, antibody captured, FcgR analyte
T8 construct: also called cyno FcgRIIIaS; cynoFcγRIIIaS; not shown: His-tag added to C-terminus
Protocol: as §1

| Binder | Kd [1] [µM] | Binding to cynoFcgRs (SG1 = 100) [2] | Binding to cynoFcgRs (SG1 = 100) [3] | Binding to cynoFcgRs (SG1 = 100) [4] | Binding to cynoFcgRs (SG1 = 100) [5] | Binding to cynoFcgRs (SG1 = 100) [6] | KD fold (SG1 = 1) [7] [fold] | KD fold (SG1 = 1) [8] [fold] |
| --- | --- | --- | --- | --- | --- | --- | --- | --- |
| M103205H795-MY201/M103202L889-SK1 (antibody, human IgG1, kappa, Fc variant of MS1032LO06-SG1; also called MS1032LO06-MY201) heavy: QVTLKESGPVLVKPTETLTLTCTVSGIDLSHDDISWVRQAPGKGLEWVGIISYAGSTYYASWAKGRLTISKDTSKNQVVLTMTNMDPVDTATYYCARGVPAYSHGGDLWGQGTLVTVSSASTKGPSVFPLAPSSKSTSGGTAALGCLVKDYFPEPVTVSWNSGALTSGVHTFPAVLQSSGLYSLSSVVTVPSSSLGTQTYICNVNHKPSNTKVDKKVEPKSCDKTHTCPPCPAPELLNGPSVFLFPPKPKDTLMISRTPEVTCVVVDVSDEDPEVKFNWYVDGVEVHNAKTKPREEQYNSTYRVVSVLTVLHQDWLNGKEYKCKVSNKALPKPIEKTISKAKGQPREPQVYTLPPSREEMTKNQVSLTCLVKGFYPSDIAVEWESNGQPENNYKTTPPVLDSDGSFFLYSKLTVDKSRWQQGNVFSCSVMHEALHNHYTQKSLSLSP light: DIVMTQSPATLSLSPGERATLSCTSSQSVYHANWLSWFQQKPGQPPKLLIYWASTLAYGVPSRFSGSGSGTDFTLTISSLQPEDAATYYCAGGYGGGRYAFGQGTKVEIKRTVAAPSVFIFPPSDEQLKSGTASVVCLLNNFYPREAKVQWKVDNALQSGNSQESVTEQDSKDSTYSLSSTLTLSKADYEKHKVYACEVTHQGLSSPVTKSFNRGEC | 5.9 |  |  |  |  |  |  |  |
| M103205H795-MY001 / M103202L889-SK1 (antibody, human IgG1, kappa, name in EU numbering, also called G236N) heavy: not shown light: DIVMTQSPATLSLSPGERATLSCTSSQSVYHANWLSWFQQKPGQPPKLLIYWASTLAYGVPSRFSGSGSGTDFTLTISSLQPEDAATYYCAGGYGGGRYAFGQGTKVEIKRTVAAPSVFIFPPSDEQLKSGTASVVCLLNNFYPREAKVQWKVDNALQSGNSQESVTEQDSKDSTYSLSSTLTLSKADYEKHKVYACEVTHQGLSSPVTKSFNRGEC |  | 85 | 62 | 83 | 86 | 15 |  |  |
| M103205H795-MY205/M103202L889-SK1 (antibody, human IgG1, kappa, also called MS1032LO06-MY205) heavy: QVTLKESGPVLVKPTETLTLTCTVSGIDLSHDDISWVRQAPGKGLEWVGIISYAGSTYYASWAKGRLTISKDTSKNQVVLTMTNMDPVDTATYYCARGVPAYSHGGDLWGQGTLVTVSSASTKGPSVFPLAPSSKSTSGGTAALGCLVKDYFPEPVTVSWNSGALTSGVHTFPAVLQSSGLYSLSSVVTVPSSSLGTQTYICNVNHKPSNTKVDKKVEPKSCDKTHTCPPCPAPELLNGPSVFLFPPKPKDTLMISRTPEVTCVVVDVSDEDPEVKFNWYVDGVEVHNAKTKPREELYNSTYRVVSVLTVLHQDWLNGKEYKCKVSNKALPKPIEKTISKAKGQPREPQVYTLPPSREEMTKNQVSLTCLVKGFYPSDIAVEWESNGQPENNYKTTPPVLDSDGSFFLYSKLTVDKSRWQQGNVFSCSVMHEALHNHYTQKSLSLSP light: DIVMTQSPATLSLSPGERATLSCTSSQSVYHANWLSWFQQKPGQPPKLLIYWASTLAYGVPSRFSGSGSGTDFTLTISSLQPEDAATYYCAGGYGGGRYAFGQGTKVEIKRTVAAPSVFIFPPSDEQLKSGTASVVCLLNNFYPREAKVQWKVDNALQSGNSQESVTEQDSKDSTYSLSSTLTLSKADYEKHKVYACEVTHQGLSSPVTKSFNRGEC |  |  |  |  |  |  | 8.7 | 0.08 |
| M103205H795-MY201/M103202L889-SK1 (antibody, human IgG1, kappa, also called MS1032LO06-MY201) heavy: QVTLKESGPVLVKPTETLTLTCTVSGIDLSHDDISWVRQAPGKGLEWVGIISYAGSTYYASWAKGRLTISKDTSKNQVVLTMTNMDPVDTATYYCARGVPAYSHGGDLWGQGTLVTVSSASTKGPSVFPLAPSSKSTSGGTAALGCLVKDYFPEPVTVSWNSGALTSGVHTFPAVLQSSGLYSLSSVVTVPSSSLGTQTYICNVNHKPSNTKVDKKVEPKSCDKTHTCPPCPAPELLNGPSVFLFPPKPKDTLMISRTPEVTCVVVDVSDEDPEVKFNWYVDGVEVHNAKTKPREEQYNSTYRVVSVLTVLHQDWLNGKEYKCKVSNKALPKPIEKTISKAKGQPREPQVYTLPPSREEMTKNQVSLTCLVKGFYPSDIAVEWESNGQPENNYKTTPPVLDSDGSFFLYSKLTVDKSRWQQGNVFSCSVMHEALHNHYTQKSLSLSP light: DIVMTQSPATLSLSPGERATLSCTSSQSVYHANWLSWFQQKPGQPPKLLIYWASTLAYGVPSRFSGSGSGTDFTLTISSLQPEDAATYYCAGGYGGGRYAFGQGTKVEIKRTVAAPSVFIFPPSDEQLKSGTASVVCLLNNFYPREAKVQWKVDNALQSGNSQESVTEQDSKDSTYSLSSTLTLSKADYEKHKVYACEVTHQGLSSPVTKSFNRGEC |  |  |  |  |  |  | 4.7 |  |
| M103205H795-SG165 / M103202L889-SK1 (antibody, human IgG1, kappa, name in EU numbering, also called G237Y) heavy: not shown light: DIVMTQSPATLSLSPGERATLSCTSSQSVYHANWLSWFQQKPGQPPKLLIYWASTLAYGVPSRFSGSGSGTDFTLTISSLQPEDAATYYCAGGYGGGRYAFGQGTKVEIKRTVAAPSVFIFPPSDEQLKSGTASVVCLLNNFYPREAKVQWKVDNALQSGNSQESVTEQDSKDSTYSLSSTLTLSKADYEKHKVYACEVTHQGLSSPVTKSFNRGEC |  | 30 | 30 | 18 | 17 | 7 |  |  |

Now from value to binder:

| Kd [1] [µM] | Binding to cynoFcgRs (SG1 = 100) [2] | Binding to cynoFcgRs (SG1 = 100) [3] | Binding to cynoFcgRs (SG1 = 100) [4] | Binding to cynoFcgRs (SG1 = 100) [5] | Binding to cynoFcgRs (SG1 = 100) [6] | KD fold (SG1 = 1) [7] [fold] | KD fold (SG1 = 1) [8] [fold] | Binder |
| --- | --- | --- | --- | --- | --- | --- | --- | --- |
|  | 14 | 17 | 13 | 13 |  |  |  | M103205H795-SG175 / M103202L889-SK1 (antibody, human IgG1, kappa, name in EU numbering, also called N325F) heavy: not shown light: DIVMTQSPATLSLSPGERATLSCTSSQSVYHANWLSWFQQKPGQPPKLLIYWASTLAYGVPSRFSGSGSGTDFTLTISSLQPEDAATYYCAGGYGGGRYAFGQGTKVEIKRTVAAPSVFIFPPSDEQLKSGTASVVCLLNNFYPREAKVQWKVDNALQSGNSQESVTEQDSKDSTYSLSSTLTLSKADYEKHKVYACEVTHQGLSSPVTKSFNRGEC |
|  |  | 17 | 10 | 10 | 5 |  |  | M103205H795-SG166 / M103202L889-SK1 (antibody, human IgG1, kappa, name in EU numbering, also called G237D) heavy: not shown light: DIVMTQSPATLSLSPGERATLSCTSSQSVYHANWLSWFQQKPGQPPKLLIYWASTLAYGVPSRFSGSGSGTDFTLTISSLQPEDAATYYCAGGYGGGRYAFGQGTKVEIKRTVAAPSVFIFPPSDEQLKSGTASVVCLLNNFYPREAKVQWKVDNALQSGNSQESVTEQDSKDSTYSLSSTLTLSKADYEKHKVYACEVTHQGLSSPVTKSFNRGEC |
|  | 20 | 18 | 17 | 20 |  |  |  | M103205H795-SG171 / M103202L889-SK1 (antibody, human IgG1, kappa, name in EU numbering, also called S239P) heavy: not shown light: DIVMTQSPATLSLSPGERATLSCTSSQSVYHANWLSWFQQKPGQPPKLLIYWASTLAYGVPSRFSGSGSGTDFTLTISSLQPEDAATYYCAGGYGGGRYAFGQGTKVEIKRTVAAPSVFIFPPSDEQLKSGTASVVCLLNNFYPREAKVQWKVDNALQSGNSQESVTEQDSKDSTYSLSSTLTLSKADYEKHKVYACEVTHQGLSSPVTKSFNRGEC |
